Experimental data reported in US20200399318A1, “PEPTIDE INHIBITORS OF PHOSPHOGLYCERATE MUTASE AND METHODS OF USE” (priority 2016, published 2020).
Where “and” joins values, the source holds several entries; their conditions need not be identical. Equal values may be shown once. Read-outs that look alike come from different tables or passages of the source.

Assays:
[1] = target: T1, E. coli cofactor-dependent phosphoglycerate mutase (dPGM) (Escherichia coli), P62707; experiment: cell-based or functional assay
T1 chain: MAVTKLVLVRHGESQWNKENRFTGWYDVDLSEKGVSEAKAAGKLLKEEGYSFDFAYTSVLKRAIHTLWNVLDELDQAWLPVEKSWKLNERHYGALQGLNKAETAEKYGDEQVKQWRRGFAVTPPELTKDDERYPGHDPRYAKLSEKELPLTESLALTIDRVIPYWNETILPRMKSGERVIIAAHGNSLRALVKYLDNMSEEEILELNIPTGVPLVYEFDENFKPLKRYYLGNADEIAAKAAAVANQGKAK

iPGM orthologues = experiment: cell-based or functional assay
[2] = target: T2, C. elegans cofactor-independent phosphoglycerate mutase (iPGM) (Caenorhabditis elegans), G5EFZ1; experiment: cell-based or functional assay
T2 chain: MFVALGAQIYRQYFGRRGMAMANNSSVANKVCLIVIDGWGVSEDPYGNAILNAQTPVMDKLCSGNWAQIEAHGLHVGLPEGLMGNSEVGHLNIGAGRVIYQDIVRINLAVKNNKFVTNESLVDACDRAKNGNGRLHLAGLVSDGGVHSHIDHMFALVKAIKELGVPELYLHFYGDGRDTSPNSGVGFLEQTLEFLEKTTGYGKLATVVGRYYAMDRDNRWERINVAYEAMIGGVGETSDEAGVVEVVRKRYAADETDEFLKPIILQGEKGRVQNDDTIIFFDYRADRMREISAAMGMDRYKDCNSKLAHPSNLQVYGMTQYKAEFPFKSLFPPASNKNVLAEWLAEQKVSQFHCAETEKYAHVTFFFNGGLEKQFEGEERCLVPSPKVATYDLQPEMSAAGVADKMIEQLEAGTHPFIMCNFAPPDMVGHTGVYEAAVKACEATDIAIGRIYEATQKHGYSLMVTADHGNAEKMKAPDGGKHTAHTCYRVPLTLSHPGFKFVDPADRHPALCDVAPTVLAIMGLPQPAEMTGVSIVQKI

[3] = target: T3, B. malayi cofactor-independent phosphoglycerate mutase (iPGM) (Brugia malayi), Q4VWF8; experiment: cell-based or functional assay
T3 chain: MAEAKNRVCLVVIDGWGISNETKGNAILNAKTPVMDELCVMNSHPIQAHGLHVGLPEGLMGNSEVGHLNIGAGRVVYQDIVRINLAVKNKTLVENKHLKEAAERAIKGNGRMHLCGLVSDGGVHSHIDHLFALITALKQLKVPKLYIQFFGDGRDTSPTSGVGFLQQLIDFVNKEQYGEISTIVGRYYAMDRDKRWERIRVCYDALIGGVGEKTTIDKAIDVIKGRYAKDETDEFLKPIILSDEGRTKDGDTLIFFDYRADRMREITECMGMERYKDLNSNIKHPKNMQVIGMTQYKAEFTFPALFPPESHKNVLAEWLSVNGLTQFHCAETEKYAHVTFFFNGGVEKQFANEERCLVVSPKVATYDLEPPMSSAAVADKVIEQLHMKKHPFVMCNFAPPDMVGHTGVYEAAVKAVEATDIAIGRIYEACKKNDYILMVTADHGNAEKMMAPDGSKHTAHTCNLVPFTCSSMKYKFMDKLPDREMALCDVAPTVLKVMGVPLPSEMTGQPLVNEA

[4] = target: T4, E. coli cofactor-independent phosphoglycerate mutase (iPGM) (Escherichia coli), P37689; experiment: cell-based or functional assay
[5] = target: T5, O. volvulus cofactor-independent phosphoglycerate mutase (iPGM) (Onchocerca volvulus), I6LDA6; experiment: cell-based or functional assay
T5 chain: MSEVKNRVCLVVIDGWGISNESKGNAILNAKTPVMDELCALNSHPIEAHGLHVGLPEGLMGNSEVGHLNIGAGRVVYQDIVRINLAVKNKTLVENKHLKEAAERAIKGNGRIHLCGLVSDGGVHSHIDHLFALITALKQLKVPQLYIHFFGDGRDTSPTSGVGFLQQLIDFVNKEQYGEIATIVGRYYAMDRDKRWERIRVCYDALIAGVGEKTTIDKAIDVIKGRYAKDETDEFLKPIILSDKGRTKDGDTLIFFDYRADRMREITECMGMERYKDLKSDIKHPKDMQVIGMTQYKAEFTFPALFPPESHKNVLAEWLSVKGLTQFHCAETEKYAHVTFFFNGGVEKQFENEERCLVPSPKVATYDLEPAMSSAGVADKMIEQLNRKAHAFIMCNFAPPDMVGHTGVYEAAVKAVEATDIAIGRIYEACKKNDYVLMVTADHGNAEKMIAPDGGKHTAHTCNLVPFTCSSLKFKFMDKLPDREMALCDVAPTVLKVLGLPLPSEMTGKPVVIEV

[6] = target: H. sapiens cofactor-dependent phosphoglycerate mutase (dPGM) (Homo sapiens), P18669; experiment: cell-based or functional assay
[7] = target: T5, O. volvulus cofactor-independent …; experiment: cell-based or functional assay
[8] = target: T2, C. elegans cofactor-independent …; experiment: quadratic (stoichiometric binding) model fitted to concentration response curves of the coupled bioluminescent enzyme assay at several C. elegans iPGM concentrations (FIG. 10B)
[9] = target: T2, C. elegans cofactor-independent …; experiment: cell-based or functional assay
[10] = target: T3, B. malayi cofactor-independent …; experiment: cell-based or functional assay
[11] = target: T4, E. coli cofactor-independent …; experiment: cell-based or functional assay; remark: listed apart in the source
[12] = target: T5, O. volvulus cofactor-independent …; experiment: cell-based or functional assay

Row | Binder | Max Inhibition [1] | inhibitory activity (endpoint profiling assays) (iPGM orthologues) [nM] | Max Inhibition [2] | pIC50 [2] | Max Inhibition [3] | pIC50 [3] | Max Inhibition [4] | pIC50 [4] | Max Inhibition [5] | pIC50 [5] | Max Inhibition [6] | also measured
1 | YDYPGDHCYLYGTCG (modifications not checked) [Ce-1 (ipglycermide A)] | 5 | 2 to 20 | -95.8 | 8.4 pIC50 (M) | -94 | 7.92 pIC50 (M) | -96.5 | 8.38 pIC50 (M) | -95.4 | 7.61 pIC50 (M) | 4 | pIC50 [7]: 7.62 pIC50
2 | YDYPGDYCYLYGTCG (modifications not checked) [Ce-2 (ipglycermide B)] | -5.9 | 2 to 20 | -100 | 8.65 pIC50 (M) | -98.8 | 8.27 pIC50 (M) | -102 | 8.78 pIC50 (M) | -98.2 | 7.72 pIC50 (M) | -0.3 | Max Inhibition (* series) [1]: 2.7; Max Inhibition (* iPGM 500 pM) [2]: -101; pEC50 (GEMBE) [2]: 8.36 pEC50; pIC50 (* iPGM 500 pM) [2]: 9.6 pIC50 (M); pEC50 (GEMBE) [3]: 8.37 pEC50; fold enhancement in affinity against linear Ce-L2 (from IC50s) [4]: 2000 fold; pEC50 (GEMBE) [4]: 8.49 pEC50; fold enhancement in affinity against linear Ce-L2 (from IC50s) [5]: 10000 fold; Max Inhibition (* series) [6]: 1.9; Kd [8]: 0.073 nM; IC50 [9]: 2.3 nM and 2.34 nM; pIC50 [9]: 8.63 pIC50; IC50 [10]: 17 nM and 16.8 nM; pIC50 [10]: 7.78 pIC50; IC50 [11]: 230 pM; pIC50 [11]: 9.64 pIC50; IC50 [12]: 23 nM and 23.5 nM; pIC50 [12]: 7.63 pIC50
